Data on 2 molecules can be found in article PMC3793637 (Nature, 2013).

Series [1] concerns the target insulin receptor site 2 (Homo sapiens) (UniProt P06213). Particulars: cited from earlier work.
Series [2] has as its target insulin receptor site 1 (Homo sapiens) (UniProt P06213). The following applies: cited from earlier work.
The series “SEC” concerns the molecule itself. Description: SEC.
The series “crystal structure” deals with the molecule itself. Description: crystal structure.

insulin receptor site 1 (Homo sapiens), sequence (P06213 763-956): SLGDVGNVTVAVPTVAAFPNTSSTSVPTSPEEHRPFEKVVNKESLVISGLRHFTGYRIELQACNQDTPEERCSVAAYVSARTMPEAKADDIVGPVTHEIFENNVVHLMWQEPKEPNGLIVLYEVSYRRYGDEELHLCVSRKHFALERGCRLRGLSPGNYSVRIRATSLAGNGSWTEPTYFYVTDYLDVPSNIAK
insulin receptor site 2 (Homo sapiens), sequence (P06213 763-956): as above

insulin (from UniProt P01308): the Kd in series [1] was 400 nM; in series [2], 6.4 nM.

B1: IR593.αCT (domain or fragment, human, UniProt P06213 28-620, looked up)
chain: HLYPGEVCPGMDIRNNLTRLHELENCSVIEGHLQILLMFKTRPEDFRDLSFPKLIMITDYLLLFRVYGLESLKDLFPNLTVIRGSRLFFNYALVIFEMVHLKELGLYNLMNITRGSVRIEKNNELCYLATIDWSRILDSVEDNYIVLNKDDNEECGDICPGTAKGKTNCPATVINGQFVERCWTHSHCQKVCPTICKSHGCTAEGLCCHSECLGNCSQPDDPTKCVACRNFYLDGRCVETCPPPYYHFQDWRCVNFSFCQDLHHKCKNSRRQGCHQYVIHNNKCIPECPSGYTMNSSNLLCTPCLGPCPKVCHLLEGEKTIDSVTSAQELRGCTVINGSLIINIRGGNNLAAELEANLGLIEEISGYLKIRRSYALVSLSFFRKLRLIRGETLEIGNYSFYALDNQNLRQLWDWSKHNLTITQGKLFFHYNPKLCLSEIHKMEEVSGTKGRQERNDIALKTNGDQASCENELLKFSYIRTSFDKILLRWEPYWPPDFRDLLGFMLFYKEAPYQNVTEFDGQDACGSNSWTVVDIDPPLRSNDPKSQNHPGWLMRGLKPWTQYAIFVKTLVTFSDERRTYGAKSDIIYVQTDATTFEDYLHNVVFVPRPS
For B1, the “stoichiometry N” value in “SEC” worked out at 2; in “crystal structure”, 4.
